Results taken from patent US20090105152A1.
Square brackets hold non-standard residues; d marks the D form. Primed or numbered codes have the meaning given here. Ends that are not written are not given here. * marks the point of attachment. Phe(4-Cl) = N[C@@H](Cc1ccc(Cl)cc1)C(=O)O; Phe(3-F) = N[C@@H](Cc1cccc(F)c1)C(=O)O; Pzc(2) = piperazine-2-carboxylic acid; Phe(2-F) = N[C@@H](Cc1ccccc1F)C(=O)O; Arg(Me) = CNC(=N)NCCC[C@H](N)C(=O)O; Hyp = O=C(O)[C@@H]1C[C@@H](O)CN1; Decanoyl = CCCCCCCCCC(=O)*; Ahx = NCCCCCC(=O)O; azaGly = NNC(=O)O

Molecular target: human OT7T175 (metastin receptor) (human) (UniProt Q969F8)
Test: cell-based or functional assay

Chain of human OT7T175 (metastin receptor) (human) (Q969F8 whole entry L364H): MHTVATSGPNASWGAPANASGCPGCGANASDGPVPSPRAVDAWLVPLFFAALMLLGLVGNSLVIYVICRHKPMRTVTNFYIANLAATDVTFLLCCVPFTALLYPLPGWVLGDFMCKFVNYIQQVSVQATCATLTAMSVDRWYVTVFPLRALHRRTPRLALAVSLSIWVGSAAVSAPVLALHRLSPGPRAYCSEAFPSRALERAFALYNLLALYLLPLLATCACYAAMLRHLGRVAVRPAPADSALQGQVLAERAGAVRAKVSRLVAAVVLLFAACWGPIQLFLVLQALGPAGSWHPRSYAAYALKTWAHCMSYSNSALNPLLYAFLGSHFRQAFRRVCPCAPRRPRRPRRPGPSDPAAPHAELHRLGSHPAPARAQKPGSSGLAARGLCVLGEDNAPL

B1: des(1)-Ac-[D-Tyr2,D-Trp3,Thr5,Phe(4Cl)6,AzaGly7,Arg(Me)9,Trp10]MS10 (peptide)
peptide: Ac-[dY][dW]NT[Phe(4-Cl)][azaGly]L[Arg(Me)]W-NH2
SMILES: CNC(=N)NCCC[C@H](NC(=O)[C@H](CC(C)C)NC(=O)NNC(=O)[C@H](Cc1ccc(Cl)cc1)NC(=O)[C@@H](NC(=O)[C@H](CC(N)=O)NC(=O)[C@@H](Cc1c[nH]c2ccccc12)NC(=O)[C@@H](Cc1ccc(O)cc1)NC(C)=O)[C@@H](C)O)C(=O)N[C@@H](Cc1c[nH]c2ccccc12)C(N)=O
  intracellular Ca ion level-increasing activity [specific activity to Metastin (1-54)] (relative to Metastin (1-54)): 0.4

B2: des(1)-Ac-[D-Tyr2,D-Trp3,Thr5,Phe(2F)6,AzaGly7,Arg(Me)9,Trp10]MS10 (peptide)
peptide: Ac-[dY][dW]NT[Phe(2-F)][azaGly]L[Arg(Me)]W-NH2
SMILES: CNC(=N)NCCC[C@H](NC(=O)[C@H](CC(C)C)NC(=O)NNC(=O)[C@H](Cc1ccccc1F)NC(=O)[C@@H](NC(=O)[C@H](CC(N)=O)NC(=O)[C@@H](Cc1c[nH]c2ccccc12)NC(=O)[C@@H](Cc1ccc(O)cc1)NC(C)=O)[C@@H](C)O)C(=O)N[C@@H](Cc1c[nH]c2ccccc12)C(N)=O
  intracellular Ca ion level-increasing activity [specific activity to Metastin (1-54)] (relative to Metastin (1-54)): 0.5

B3: des(1-3)-Decanoyl-[Thr5,AzaGly7,Arg(Me)9,Trp10]MS10 (peptide)
peptide: Decanoyl-NTF[azaGly]L[Arg(Me)]W-NH2
SMILES: CCCCCCCCCC(=O)N[C@@H](CC(N)=O)C(=O)N[C@H](C(=O)N[C@@H](Cc1ccccc1)C(=O)NNC(=O)N[C@@H](CC(C)C)C(=O)N[C@@H](CCCNC(=N)NC)C(=O)N[C@@H](Cc1c[nH]c2ccccc12)C(N)=O)[C@@H](C)O
  intracellular Ca ion level-increasing activity [specific activity to Metastin (1-54)] (relative to Metastin (1-54)): 7.2

B4: des(1)-Ac-[D-Tyr2,D-Trp3,Thr5,Phe(3F)6,AzaGly7,Arg(Me)9,Trp10]MS10 (peptide)
peptide: Ac-[dY][dW]NT[Phe(3-F)][azaGly]L[Arg(Me)]W-NH2
SMILES: CNC(=N)NCCC[C@H](NC(=O)[C@H](CC(C)C)NC(=O)NNC(=O)[C@H](Cc1cccc(F)c1)NC(=O)[C@@H](NC(=O)[C@H](CC(N)=O)NC(=O)[C@@H](Cc1c[nH]c2ccccc12)NC(=O)[C@@H](Cc1ccc(O)cc1)NC(C)=O)[C@@H](C)O)C(=O)N[C@@H](Cc1c[nH]c2ccccc12)C(N)=O
  intracellular Ca ion level-increasing activity [specific activity to Metastin (1-54)] (relative to Metastin (1-54)): 1

B5: des(1)-Ac-[D-Tyr2,Lys3,Thr5,Phe(2F)6,AzaGly7,Arg(Me)9,Trp10]MS10 (peptide)
peptide: Ac-[dY]KNT[Phe(2-F)][azaGly]L[Arg(Me)]W-NH2
SMILES: CNC(=N)NCCC[C@H](NC(=O)[C@H](CC(C)C)NC(=O)NNC(=O)[C@H](Cc1ccccc1F)NC(=O)[C@@H](NC(=O)[C@H](CC(N)=O)NC(=O)[C@H](CCCCN)NC(=O)[C@@H](Cc1ccc(O)cc1)NC(C)=O)[C@@H](C)O)C(=O)N[C@@H](Cc1c[nH]c2ccccc12)C(N)=O
  intracellular Ca ion level-increasing activity [specific activity to Metastin (1-54)] (relative to Metastin (1-54)): 3.1

B6: des(1)-Ac-[D-Tyr2,Glu3,Thr5,Phe(2F)6,AzaGly7,Arg(Me)9,Trp10]MS10 (peptide)
peptide: Ac-[dY]ENT[Phe(2-F)][azaGly]L[Arg(Me)]W-NH2
SMILES: CNC(=N)NCCC[C@H](NC(=O)[C@H](CC(C)C)NC(=O)NNC(=O)[C@H](Cc1ccccc1F)NC(=O)[C@@H](NC(=O)[C@H](CC(N)=O)NC(=O)[C@H](CCC(=O)O)NC(=O)[C@@H](Cc1ccc(O)cc1)NC(C)=O)[C@@H](C)O)C(=O)N[C@@H](Cc1c[nH]c2ccccc12)C(N)=O
  intracellular Ca ion level-increasing activity [specific activity to Metastin (1-54)] (relative to Metastin (1-54)): 3.5

B7: des(1)-Ac-[D-Tyr2,Lys3,Thr5,Phe(3F)6,AzaGly7,Arg(Me)9,Trp10]MS10 (peptide)
peptide: Ac-[dY]KNT[Phe(3-F)][azaGly]L[Arg(Me)]W-NH2
SMILES: CNC(=N)NCCC[C@H](NC(=O)[C@H](CC(C)C)NC(=O)NNC(=O)[C@H](Cc1cccc(F)c1)NC(=O)[C@@H](NC(=O)[C@H](CC(N)=O)NC(=O)[C@H](CCCCN)NC(=O)[C@@H](Cc1ccc(O)cc1)NC(C)=O)[C@@H](C)O)C(=O)N[C@@H](Cc1c[nH]c2ccccc12)C(N)=O
  intracellular Ca ion level-increasing activity [specific activity to Metastin (1-54)] (relative to Metastin (1-54)): 2.4

B8: des(1)-Ac-[D-Tyr2,Glu3,Thr5,Phe(3F)6,AzaGly7,Arg(Me)9,Trp10]MS10 (peptide)
peptide: Ac-[dY]ENT[Phe(3-F)][azaGly]L[Arg(Me)]W-NH2
SMILES: CNC(=N)NCCC[C@H](NC(=O)[C@H](CC(C)C)NC(=O)NNC(=O)[C@H](Cc1cccc(F)c1)NC(=O)[C@@H](NC(=O)[C@H](CC(N)=O)NC(=O)[C@H](CCC(=O)O)NC(=O)[C@@H](Cc1ccc(O)cc1)NC(C)=O)[C@@H](C)O)C(=O)N[C@@H](Cc1c[nH]c2ccccc12)C(N)=O
  intracellular Ca ion level-increasing activity [specific activity to Metastin (1-54)] (relative to Metastin (1-54)): 2.7

B9: des(1)-Ac-[D-Tyr2,Lys3,Thr5,Phe(4Cl)6,AzaGly7,Arg(Me)9,Trp10]MS10 (peptide)
peptide: Ac-[dY]KNT[Phe(4-Cl)][azaGly]L[Arg(Me)]W-NH2
SMILES: CNC(=N)NCCC[C@H](NC(=O)[C@H](CC(C)C)NC(=O)NNC(=O)[C@H](Cc1ccc(Cl)cc1)NC(=O)[C@@H](NC(=O)[C@H](CC(N)=O)NC(=O)[C@H](CCCCN)NC(=O)[C@@H](Cc1ccc(O)cc1)NC(C)=O)[C@@H](C)O)C(=O)N[C@@H](Cc1c[nH]c2ccccc12)C(N)=O
  intracellular Ca ion level-increasing activity [specific activity to Metastin (1-54)] (relative to Metastin (1-54)): 1.8

B10: des(1)-Ac-[D-Tyr2,Glu3,Thr5,Phe(4Cl)6,AzaGly7,Arg(Me)9,Trp10]MS10 (peptide)
peptide: Ac-[dY]ENT[Phe(4-Cl)][azaGly]L[Arg(Me)]W-NH2
SMILES: CNC(=N)NCCC[C@H](NC(=O)[C@H](CC(C)C)NC(=O)NNC(=O)[C@H](Cc1ccc(Cl)cc1)NC(=O)[C@@H](NC(=O)[C@H](CC(N)=O)NC(=O)[C@H](CCC(=O)O)NC(=O)[C@@H](Cc1ccc(O)cc1)NC(C)=O)[C@@H](C)O)C(=O)N[C@@H](Cc1c[nH]c2ccccc12)C(N)=O
  intracellular Ca ion level-increasing activity [specific activity to Metastin (1-54)] (relative to Metastin (1-54)): 1.9

## Ac-[dY][Pzc(2)]NTF[azaGly]L[Arg(Me)]W-NH2 [des(1)-Ac-[D-Tyr2,Pzc(2)3,Thr5,AzaGly7,Arg(Me)9,Trp10]MS10]
  intracellular Ca ion level-increasing activity [specific activity to Metastin (1-54)] (relative to Metastin (1-54)): 1.7

B11: des(1)-Ac-[D-Tyr2,Hyp3,Thr5,Phe(2F)6,AzaGly7,Arg(Me)9,Trp10]MS10 (peptide)
peptide: Ac-[dY][Hyp]NT[Phe(2-F)][azaGly]L[Arg(Me)]W-NH2
SMILES: CNC(=N)NCCC[C@H](NC(=O)[C@H](CC(C)C)NC(=O)NNC(=O)[C@H](Cc1ccccc1F)NC(=O)[C@@H](NC(=O)[C@H](CC(N)=O)NC(=O)[C@@H]1C[C@@H](O)CN1C(=O)[C@@H](Cc1ccc(O)cc1)NC(C)=O)[C@@H](C)O)C(=O)N[C@@H](Cc1c[nH]c2ccccc12)C(N)=O
  intracellular Ca ion level-increasing activity [specific activity to Metastin (1-54)] (relative to Metastin (1-54)): 6.4

B12: des(1)-Ac-[D-Tyr2,Trp3,Thr5,Phe(2F)6,AzaGly7,Arg(Me)9,Trp10]MS10 (peptide)
peptide: Ac-[dY]WNT[Phe(2-F)][azaGly]L[Arg(Me)]W-NH2
SMILES: CNC(=N)NCCC[C@H](NC(=O)[C@H](CC(C)C)NC(=O)NNC(=O)[C@H](Cc1ccccc1F)NC(=O)[C@@H](NC(=O)[C@H](CC(N)=O)NC(=O)[C@H](Cc1c[nH]c2ccccc12)NC(=O)[C@@H](Cc1ccc(O)cc1)NC(C)=O)[C@@H](C)O)C(=O)N[C@@H](Cc1c[nH]c2ccccc12)C(N)=O
  intracellular Ca ion level-increasing activity [specific activity to Metastin (1-54)] (relative to Metastin (1-54)): 1.5

B13: des(1-2)-[Acp3,Thr5,AzaGly7,Arg(Me)9,Trp10]MS10 (peptide)
peptide: [Ahx]NTF[azaGly]L[Arg(Me)]W-NH2
modifications: N-terminus assumed
SMILES: CNC(=N)NCCC[C@H](NC(=O)[C@H](CC(C)C)NC(=O)NNC(=O)[C@H](Cc1ccccc1)NC(=O)[C@@H](NC(=O)[C@H](CC(N)=O)NC(=O)CCCCCN)[C@@H](C)O)C(=O)N[C@@H](Cc1c[nH]c2ccccc12)C(N)=O
  intracellular Ca ion level-increasing activity [specific activity to Metastin (1-54)] (relative to Metastin (1-54)): 8.9

B14: des(1)-Ac-[D-Tyr2,Hyp3,Thr5,Phe(3F)6,AzaGly7,Arg(Me)9,Trp10]MS10 (peptide)
peptide: Ac-[dY][Hyp]NT[Phe(3-F)][azaGly]L[Arg(Me)]W-NH2
SMILES: CNC(=N)NCCC[C@H](NC(=O)[C@H](CC(C)C)NC(=O)NNC(=O)[C@H](Cc1cccc(F)c1)NC(=O)[C@@H](NC(=O)[C@H](CC(N)=O)NC(=O)[C@@H]1C[C@@H](O)CN1C(=O)[C@@H](Cc1ccc(O)cc1)NC(C)=O)[C@@H](C)O)C(=O)N[C@@H](Cc1c[nH]c2ccccc12)C(N)=O
  intracellular Ca ion level-increasing activity [specific activity to Metastin (1-54)] (relative to Metastin (1-54)): 2.6

B15: des(1)-Ac-[D-Tyr2,Trp3,Thr5,Phe(3F)6,AzaGly7,Arg(Me)9,Trp10]MS10 (peptide)
peptide: Ac-[dY]WNT[Phe(3-F)][azaGly]L[Arg(Me)]W-NH2
SMILES: CNC(=N)NCCC[C@H](NC(=O)[C@H](CC(C)C)NC(=O)NNC(=O)[C@H](Cc1cccc(F)c1)NC(=O)[C@@H](NC(=O)[C@H](CC(N)=O)NC(=O)[C@H](Cc1c[nH]c2ccccc12)NC(=O)[C@@H](Cc1ccc(O)cc1)NC(C)=O)[C@@H](C)O)C(=O)N[C@@H](Cc1c[nH]c2ccccc12)C(N)=O
  intracellular Ca ion level-increasing activity [specific activity to Metastin (1-54)] (relative to Metastin (1-54)): 0.2

B16: des(1)-Ac-[D-Tyr2,Hyp3,Thr5,Phe(4Cl)6,AzaGly7,Arg(Me)9,Trp10]MS10 (peptide)
peptide: Ac-[dY][Hyp]NT[Phe(4-Cl)][azaGly]L[Arg(Me)]W-NH2
SMILES: CNC(=N)NCCC[C@H](NC(=O)[C@H](CC(C)C)NC(=O)NNC(=O)[C@H](Cc1ccc(Cl)cc1)NC(=O)[C@@H](NC(=O)[C@H](CC(N)=O)NC(=O)[C@@H]1C[C@@H](O)CN1C(=O)[C@@H](Cc1ccc(O)cc1)NC(C)=O)[C@@H](C)O)C(=O)N[C@@H](Cc1c[nH]c2ccccc12)C(N)=O
  intracellular Ca ion level-increasing activity [specific activity to Metastin (1-54)] (relative to Metastin (1-54)): 1.5

B17: des(1)-Ac-[D-Tyr2,Trp3,Thr5,Phe(4Cl)6,AzaGly7,Arg(Me)9,Trp10]MS10 (peptide)
peptide: Ac-[dY]WNT[Phe(4-Cl)][azaGly]L[Arg(Me)]W-NH2
SMILES: CNC(=N)NCCC[C@H](NC(=O)[C@H](CC(C)C)NC(=O)NNC(=O)[C@H](Cc1ccc(Cl)cc1)NC(=O)[C@@H](NC(=O)[C@H](CC(N)=O)NC(=O)[C@H](Cc1c[nH]c2ccccc12)NC(=O)[C@@H](Cc1ccc(O)cc1)NC(C)=O)[C@@H](C)O)C(=O)N[C@@H](Cc1c[nH]c2ccccc12)C(N)=O
  intracellular Ca ion level-increasing activity [specific activity to Metastin (1-54)] (relative to Metastin (1-54)): 0.6

B18: des(1)-Ac-[D-Tyr2,Gly3,Thr5,Phe(4Cl)6,AzaGly7,Arg(Me)9,Trp10]MS10 (peptide)
peptide: Ac-[dY]GNT[Phe(4-Cl)][azaGly]L[Arg(Me)]W-NH2
SMILES: CNC(=N)NCCC[C@H](NC(=O)[C@H](CC(C)C)NC(=O)NNC(=O)[C@H](Cc1ccc(Cl)cc1)NC(=O)[C@@H](NC(=O)[C@H](CC(N)=O)NC(=O)CNC(=O)[C@@H](Cc1ccc(O)cc1)NC(C)=O)[C@@H](C)O)C(=O)N[C@@H](Cc1c[nH]c2ccccc12)C(N)=O
  intracellular Ca ion level-increasing activity [specific activity to Metastin (1-54)] (relative to Metastin (1-54)): 1.5
